Reference: patent publication US20260083855A1

Legend:
Assay in all cases: cell-based or functional assay
[1] = biological target: IL-2R on human cells (activated CD4 T cells, PBMC subsets, NK92) (human) (UniProt P14784); parameters: EC50 on MFI of STAT5-P, PD-1+ CD4 T cells: unit not given beside the values
[2] = biological target: IL-2R on human cells (activated CD4 T cells, PBMC subsets, NK92) (human) (UniProt P14784); parameters: AUC of STAT5-P on PD1+ T cells / AUC of STAT5-P on PD1-blocked T cells: unit not given beside the values
[3] = biological target: IL-2R on human cells (activated CD4 T cells, PBMC subsets, NK92) (human) (UniProt P14784)

Chain of IL-2R on human cells (activated CD4 T cells, PBMC subsets, NK92) (human) (P14784 27-551, chain 1 of 2): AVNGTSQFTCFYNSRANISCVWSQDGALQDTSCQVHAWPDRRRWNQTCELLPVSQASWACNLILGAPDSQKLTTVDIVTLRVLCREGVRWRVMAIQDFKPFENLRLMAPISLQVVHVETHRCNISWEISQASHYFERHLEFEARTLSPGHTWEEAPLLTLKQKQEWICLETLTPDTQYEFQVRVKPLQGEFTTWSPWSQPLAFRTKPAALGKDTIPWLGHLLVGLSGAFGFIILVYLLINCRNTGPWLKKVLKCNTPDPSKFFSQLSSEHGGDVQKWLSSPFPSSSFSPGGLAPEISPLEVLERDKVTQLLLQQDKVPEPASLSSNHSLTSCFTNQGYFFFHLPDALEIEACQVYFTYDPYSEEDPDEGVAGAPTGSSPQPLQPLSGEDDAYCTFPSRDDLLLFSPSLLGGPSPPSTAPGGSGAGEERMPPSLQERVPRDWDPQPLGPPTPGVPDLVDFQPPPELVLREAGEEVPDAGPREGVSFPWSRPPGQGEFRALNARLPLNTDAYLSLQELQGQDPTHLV
Chain of IL-2R on human cells (activated CD4 T cells, PBMC subsets, NK92) (human) (P31785 23-369, chain 2 of 2, further chain): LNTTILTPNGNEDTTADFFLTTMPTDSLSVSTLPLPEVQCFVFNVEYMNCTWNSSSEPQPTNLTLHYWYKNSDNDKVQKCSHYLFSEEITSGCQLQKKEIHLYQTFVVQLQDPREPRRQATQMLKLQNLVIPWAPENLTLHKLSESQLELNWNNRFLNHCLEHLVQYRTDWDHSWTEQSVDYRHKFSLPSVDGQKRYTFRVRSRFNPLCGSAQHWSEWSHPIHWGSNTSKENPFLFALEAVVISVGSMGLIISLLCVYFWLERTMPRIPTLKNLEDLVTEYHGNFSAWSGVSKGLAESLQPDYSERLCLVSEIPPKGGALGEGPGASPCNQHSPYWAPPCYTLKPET

EC50 on MFI of STAT5-P, PD-1+ CD4 T cells [1]: 8530
Potency reduction versus PD1-IL2v (MFI) [1]: 12.6 fold
Potency reduction versus PD1-IL2v (frequency) [1]: 12.9 fold
AUC of STAT5-P on PD1+ T cells [2]: 144
AUC of STAT5-P on PD1-blocked T cells [2]: 142
Potency reduction vs PD1-IL2v [2]: 8.13 fold
Percentage of internalization (0.6 nM, activated CD4 T cells, 3 h at 37 C) [3]: 89.8%
Potency reduction vs PD1-IL2v on PD-1+ LAG-3+ T cells [3]: 107 fold
Substance: FAP-IL2v
